# Experiment: soluble on expression in E. coli; label from the status in PepcDB or PDB records
row,Sequence,soluble on expression in E. coli
1,MLKTISPLISPELLKVLAEMGHGDEIIFSDAHFPAHSMGPQVIRADGLLVSDLLQAIIPLFELDSYAPPLVMMAAVEGDTLDPEVERRYRNALSLQAPCPDIIRINRFAFYERAQKAFAIVITGERAKYGNILLKKGVTP,soluble
2,MKALERTVTVKGLAEKEVKANIAIWPINFTEVDNNLPKLYETVQLKTDKVVAFLKERGFSDSEITISLPSIEDRQAQGYVDPNVKYRYSAKVNLSVYTSQIDLMLSSRKQMINLVKEGIAIASQDYENRTEFLFTQLNDVKPTMVQEATQNAREVAEKFAKDSESRLGKIKSASQGQFTISDRDSSTPYIKQIRIVSTLTYYLNDLEHHHHHH,not soluble
3,MSLYEPADGILETHVTWEDVEKDLQQSLGTRATFGENKRATNISDLKGFMSRIACLEPDWQNIEEGKELPSKFALKISSQLALVALSKIMNFEEGAGFSEEKLKKFSSLTKECHNREVDAYKVLMKFNHPDIPYTKGYMIIDFVPNIQTVEMYKSISADTIIPIIRGVATFSALGERLSKEDQHFVMGPTYLEMIFEDFFNDVELKKKFDTLRTTFEETENQEKVEKLITVFEHYKSLVKKYTNISDILGVKLVLNHGDLSQPNVLFSLDPQNKLKLEAIIDWQCVSRMPPGLDTARLLLGCLSGQERRERGTELLKVYHETYTSVFGEELFTFQELQELFNLFAPMMAMMLLPVMPSSIQSAIIPEEDKVSALKEVKTKMIAMMEDILEIHDNNLNHFSDFMKI,not soluble
4,MYDWFSEMRKKDPVYYDGNIWQVFSYRYTKEVLNNFSKFSSDLTGYHERLEDLRNGKIRFDIPTRYTMLTSDPPLHDELRSMSADIFSPQKLQTLETFIRETTRSLLDSIDPREDDIVKKLAVPLPIIVISKILGLPIEDKEKFKEWSDLVAFRLGKPGEIFELGKKYLELIGYVKDHLNSGTEVVSRVVNSNLSDIEKLGYIILLLIAGNETTTNLISNSVIDFTRFNLWQRIREENLYLKAIEEALRYSPPVMRTVRKTKERVKLGDQTIEEGEYVRVWIASANRDEEVFHDGEKFIPDRNPNPHLSFGSGIHLCLGAPLARLEARIAIEEFSKRFRHIEILDTEKVPNEVLNGYKRLVVRLKSNE,soluble
5,MTTAVQPSDTTGFGGGPAGSRASDLIQFQEIMSESAESSSSSSQTNVSAANTLPRESNGQNYADDPSHVYTNIREIEELNSRPVPPTPRADAQPRRDLLNGWFEYETDVGRTFFFNKETGKSQWIPPRFIRTPAQVQEFLRATRTNLDTTCSFQGSSTSSSEEQKENKMRESLADDDRKSQLIEDEEVFDEVCDDVDEQSSPVIDLQSRPLPIPFSDSFTDDEDEDDVKPIEGSIASDSDFDEEPVPTSSRKASTASGVMMPHPYAHVSSFQSTFPRAKNEDTDKLASYVIPPDANETSKTPTAIRVRRPSPTNLRSVSFQNKCTVLKNVPMPQVLPTTSSSFDHHPQYHSNTPDRPILMEDSADFTPSSRCEERRGSGDGREPVRTIRCGDLERSENDEPAEKVVKPKKREWITNYMYLTTAHLILYKDQKSAEKHGKHYDAPQGVWDLRGASVTWYQDNRDVQKKKQRKYIQLELCNTKKYLLRGPNDTEAVEWYKSLEEVVAKLPSPGSSNQPMIDVTNGVARNPSYIGSTRPLSHALIPISRSMRRRDDPMSQSAIETVSTSVSTDEPRPSKETIIEKLRRFFRTRPTVESLKEKGIYKPEPVFGSTLSAICQHENSLVPKFIRVITEVIESKGLETDGIYRVSGNLSAVQKIRCQADQDNYKALVSEEDIHVLTGALKLFFRELTDPLFPISLHKEYTSAMQMPNATTRFKKFEELLSRLPNENRETLKMLLRHLNRVASHSSQNRMQQHNLAIVFGPTLFHNGDGAVNLATKNKKAGKKAKPSKKEETQATPVQSNSHLAFSMIMQSQIVQYLLESANKFDILKAPVNIGR,not soluble
6,MNYELIVVGGGPAGLAAAYEAYNNGIKNILILERDKELGGILNQCIHNGFGLHTFKEELTGPEYADRFIEMVKDTNVEVKLNTMVLEITKDKKVYAINSKEGYMELEAKAIILSMGCRERTRGAINIPGDRPAGVFTAGAAQRYINVEGYMPGKEVVILGSGDIGLIMARRMTLEGAKVKAVVELCPYSNGLNRNIVQCLNDYNIPLYLSHTVTDIIGKERLEKVIIAKVDENRRPIKGTEIEFDADTLLLSVGLIPENELSSNAGIELDRRTNGLRVTESMETSIDGIFACGNVVHVHDLVDFVTEESKRTGASAAKYIKGELKKDKYVNIVNGTNVNYTVPQKLNVDDVEDRLTIFMRVNNIYHNKVLVVRSKEEVIAKFKRAHLAPSEMEKVVLGKAFLDKIKSDITISLEDGE,not soluble
